Measured values taken from PMC5392571, “A model for the conformational activation of the structurally quiescent metalloprotease ADAMTS13 by von willebrand factor” (The Journal of Biological Chemistry, 2017).

T1: WT MDTCS (ADAMTS13 residues 1–685) (human, UniProt Q76LX8 30-685)
T1 construct: signal peptide in the construct; ADAMTS13, human, residues 1-685 (metalloprotease, disintegrin-like, TSP1, cysteine-rich and spacer domains); In pCEP4; also called truncated ADAMTS13 variant MDTCS; source: HEK293S cells, purified; not shown: His6, C-terminal, kept
T1 sequence (looked up): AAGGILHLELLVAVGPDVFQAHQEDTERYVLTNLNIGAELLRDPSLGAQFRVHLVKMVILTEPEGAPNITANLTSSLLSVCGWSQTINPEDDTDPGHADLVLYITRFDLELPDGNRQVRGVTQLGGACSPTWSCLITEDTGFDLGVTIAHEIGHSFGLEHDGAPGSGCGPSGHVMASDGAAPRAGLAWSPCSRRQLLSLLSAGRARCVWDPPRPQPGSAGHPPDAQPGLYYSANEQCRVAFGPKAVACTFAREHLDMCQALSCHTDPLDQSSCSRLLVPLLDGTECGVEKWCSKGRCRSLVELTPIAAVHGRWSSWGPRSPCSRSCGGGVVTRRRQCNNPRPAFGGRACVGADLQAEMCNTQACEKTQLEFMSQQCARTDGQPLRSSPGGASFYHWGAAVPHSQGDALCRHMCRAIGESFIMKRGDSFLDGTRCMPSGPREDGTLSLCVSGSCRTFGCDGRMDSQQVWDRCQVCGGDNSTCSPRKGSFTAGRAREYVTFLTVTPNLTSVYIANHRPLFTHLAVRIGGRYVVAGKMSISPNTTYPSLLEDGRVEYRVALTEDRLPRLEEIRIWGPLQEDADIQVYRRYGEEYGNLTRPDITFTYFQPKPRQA


Legend:
[1] = target: T2, dimeric VWF D4-CK domain fragment (VWF residues 1874–2813) (UniProt P04275 1874-2813); experiment: SPR; BIAcore T100, CM5 chip; ADAMTS13, its truncation variants or CUB fragments immobilised, VWF D4-CK as analyte; 10 mM HEPES, 150 mM NaCl, pH 7.4, 0.0034 mM EDTA, 0.005% Tween 20; global analysis; details: both partners purified
T2 construct: von Willebrand factor, residues 1874-2813 (D4 to CK domains); source: HEK293S, transiently expressed, purified by FPLC

[2] = target: T1, WT MDTCS (ADAMTS13 residues 1–685); experiment: SPR; BIAcore T100, CM5 chip; 10 mM HEPES, 150 mM NaCl, pH 7.4, 0.0034 mM EDTA, 0.005% Tween 20; the text says MDTCS variants were immobilised, the legend of Fig. 1 says the CUB fragments were; global analysis; details: both partners purified

Kd [1]	Kd [2]	Binder
51.8 nM	55.6 nM	CUB1-2 domain fragment (ADAMTS13 residues 1192–1427) (domain or fragment, human, UniProt Q76LX8 1192-1427, looked up, ADAMTS13, human, residues 1192-1427 (CUB1 and CUB2 domains); Generated by inverse PCR from the full-length ADAMTS13 construct (C-terminal Myc/His6); source: HEK293S cells, purified) CGRQHLEPTGTIDMRGPGQADCAVAIGRPLGEVVTLRVLESSLNCSAGDMLLLWGRLTWRKMCRKLLDMTFSSKTNTLVVRQRCGRPGGGVLLRYGSQLAPETFYRECDMQLFGPWGEIVSPSLSPATSNAGGCRLFINVAPHARIAIHALATNMGAGTEGANASYILIRDTHSLRTTAFHGQQVLYWESESSQAEMEFSEGFLKAQASLRGQYWTLQSWVPEMQDPQSWKGKEGT
53.7 nM	135 nM	CUB1 domain fragment (ADAMTS13 residues 1192–1298) (domain or fragment, human, UniProt Q76LX8 1192-1298, looked up, ADAMTS13, human, residues 1192-1298 (CUB1 domain); Generated by inverse PCR from the full-length ADAMTS13 construct (C-terminal Myc/His6); detected by anti-His6 in the co-IP; also called isolated CUB1 fragment; source: HEK293S cells, purified) CGRQHLEPTGTIDMRGPGQADCAVAIGRPLGEVVTLRVLESSLNCSAGDMLLLWGRLTWRKMCRKLLDMTFSSKTNTLVVRQRCGRPGGGVLLRYGSQLAPETFYRE
84.3 nM	86.9 nM	CUB2 domain fragment (ADAMTS13 residues 1299–1427) (domain or fragment, human, UniProt Q76LX8 1299-1427, looked up, ADAMTS13, human, residues 1299-1427 (CUB2 domain); Generated by inverse PCR from the full-length ADAMTS13 construct (C-terminal Myc/His6); detected by anti-His6 in the co-IP; also called isolated CUB2 fragment; source: HEK293S cells, purified) CDMQLFGPWGEIVSPSLSPATSNAGGCRLFINVAPHARIAIHALATNMGAGTEGANASYILIRDTHSLRTTAFHGQQVLYWESESSQAEMEFSEGFLKAQASLRGQYWTLQSWVPEMQDPQSWKGKEGT
